Test [1] concerns the target T1, human CTLA4 expressed on the cell surface of CHO cells (human, UniProt P16410 36-223).
T1 construct: whole, on cells; also called CHO-huCTLA4; huCTLA4
T1 sequence (looked up): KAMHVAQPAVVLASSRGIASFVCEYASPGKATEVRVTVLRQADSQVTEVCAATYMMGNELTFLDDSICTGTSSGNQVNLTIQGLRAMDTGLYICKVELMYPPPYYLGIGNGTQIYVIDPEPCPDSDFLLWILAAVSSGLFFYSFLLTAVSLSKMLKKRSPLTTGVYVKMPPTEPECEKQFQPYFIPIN
Put plainly: FACS saturation, CHO-huCTLA-4, pH 7.4, MFI, titration up to about log 6.5; no unit in the table, unit from the axis Log Antibodies [ng/ml]. Here is the method: (§1) The amount of antibodies bound on the cells was quantified using anti-human IgG antibody conjugated to fluorophores. EC₅₀ values at pH 6.0 and 7.4 for binding to cells were calculated using the nonlinear fit (variable slope, four parameters) model built into GraphPad Prism software (version 7.03). The expression levels of human CTLA4 or cynomolgus CTLA4 on the surface of the CHO cells were determined using a BD QuantiBRITE™ PE kit.
Finally, saturations of the antibodies on the CHO cells expressing human or cynomolgus CTLA4 at pH 7.4 were also measured by FACS (FIGS. 8A-8B).

Test [2] addresses T2, recombinant human CTLA4 extracellular domain (human, UniProt P16410 36-161).
T2 construct: extracellular domain; also called huCTLA-4
T2 sequence (looked up): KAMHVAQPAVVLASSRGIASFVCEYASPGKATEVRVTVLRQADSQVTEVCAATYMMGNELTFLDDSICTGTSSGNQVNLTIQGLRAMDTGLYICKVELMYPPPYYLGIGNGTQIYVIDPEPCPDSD
Kind of test: ELISA, wells coated with human CTLA4, assay pH 6.0; lot 6972 without test buffer; same column repeated in FIG. 9B and FIG. 9C; unit from the axis Log[ng/mL]. On the procedure:
(§2) Both ELISA and FACS analysis were used to measure the binding activity. […] The amount of bound antibodies was quantified using anti-human IgG antibody conjugated to HRP. The absorbance at 450 nm in each measurement was proportional to the amount of antibodies bound. […] EC50 value (in ng/mL) for binding to human CTLA4 was determined by absorbance at 450 nm against antibody concentration with Prism variable slope of four-parameter dose-response curve, which was calculated using the nonlinear fit (variable slope, four parameters) model built into GraphPad Prism software (version 7.03). The buffers tested included His buffer (His), Tris buffer (Tris), Glutamine buffer (Glu) and no buffer.
A general note: In an ELISA, binding on a coated surface is turned into a signal by an enzyme label.

For test [3], the target named is T2, recombinant human CTLA4 extracellular …. Put plainly: ELISA, wells coated with human CTLA4, assay pH 7.4; lot 6972 in Glu buffer, T2W; unit from the axis Log[ng/mL]. On the procedure: as §2
Test [4] shares this target. Kind of test: ELISA, wells coated with human CTLA4, assay pH 6.0; lot 6978 in Glu buffer, T0; unit from the axis Log[ng/mL]. On the procedure:
as §2

Test [5] deals with T3, cynomolgus CTLA4 expressed on the cell surface of CHO cells (cynomolgus, UniProt G7PL88 36-223).
T3 construct: whole, on cells; also called CHO-cynoCTLA4
T3 sequence: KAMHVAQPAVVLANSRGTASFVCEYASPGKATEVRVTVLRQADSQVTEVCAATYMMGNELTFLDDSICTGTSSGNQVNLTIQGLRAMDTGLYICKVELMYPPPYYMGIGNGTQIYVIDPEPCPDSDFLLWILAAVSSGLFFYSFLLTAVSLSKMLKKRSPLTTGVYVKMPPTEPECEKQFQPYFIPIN
Kind of test: FACS, CHO cells expressing cynomolgus CTLA4 (CHO-cynoCTLA-4), pH 7.4, MFI; curve near baseline up to log 4, about 150000 at log 5, no plateau; no unit in the table, unit from the axis Log Antibodies [ng/ml]. Here is the method:
as §1
At least two independent duplicate FACS experiments were performed for each antibody using each of the cell lines. The binding activities at different concentrations of the antibodies are plotted in these figures.
On the technique in general: A flow cytometer gives signals particle by particle.

Test [6] concerns the target T2, recombinant human CTLA4 extracellular …. Put plainly: ELISA, wells coated with human CTLA4, assay pH 6.0; lot 6978 without test buffer; same column repeated in FIG. 9E and FIG. 9F; unit from the axis Log[ng/mL]. On the procedure:
as §2

Test [7] concerns the target T1, human CTLA4 expressed on the cell …. Kind of test: FACS, cells expressing human CTLA4, assay pH 7.4, MFI; lot 6978 control without test buffer; same column repeated in FIG. 10E and FIG. 10F; unit from the axis Log[ng/mL]. On the procedure: (§3) The amount of bound antibodies was quantified using anti-human IgG antibody conjugated to fluorophores. The MFI in each reaction was proportional to the amount of antibodies bound. The EC₅₀ value (in ng/mL) for binding to human CTLA4 on cells was determined by MFI of the singlets population against antibody concentration with a Prism variable slope of four-parameter dose-response curve, which was calculated using the nonlinear fit (variable slope, four parameters) model built into GraphPad Prism software (version 7.03).

In test [8] the target is T2, recombinant human CTLA4 extracellular …. Kind of test: ELISA, wells coated with human CTLA4, assay pH 7.4; lot 6978 in Glu buffer, T0; curve still rising at log 3 (OD450 at most about 0.3), no plateau; unit from the axis Log[ng/mL]. Here is the method:
as §2

The target of test [9] is T1, human CTLA4 expressed on the cell …. Put plainly: FACS, cells expressing human CTLA4, assay pH 7.4, MFI; lot 6978 in Tris buffer, T2W; unit from the axis Log[ng/mL]. On the procedure:
as §3

The target in test [10] is T2, recombinant human CTLA4 extracellular …. Kind of test: ELISA, wells coated with human CTLA4, assay pH 7.4; lot 6978 in Tris buffer, T0; curve still rising at log 3 (OD450 at most about 0.3), no plateau; unit from the axis Log[ng/mL]. Here is the method:
as §2

The target in test [11] is T1, human CTLA4 expressed on the cell …. Kind of test: FACS, cells expressing human CTLA4, assay pH 6.0, MFI; lot 6978 in Glu buffer, T0; unit from the axis Log[ng/mL]. On the procedure: as §3

B1: BA-087-05-19 (antibody, V domains shown)
VH: EVQLVESGGGLVQPGGSLRLSCAASGFTFSHYTMHWVRQAPGKGLEWVSFISYDGNNKYYADSVKGRFTISRDNSKNTLYLQMNSLRAEDTAVYYCARTGWLGPFDYWGQGTLVTVSS
VL: AIQLTQSPSSLSASVGDRVTITCRASQYVGSSYLAWYLQKPGQSPQLLIYGAFSRATGIPARFSGSGSGTEFTLTISSLQSEDFAVYYCQQDGSSPWTFGQGTKVEIK
notes: Detected with anti-human IgG and a molecular weight of 146 kDa was used in SPR, so it was tested as a whole IgG; also called BA-087-05-019; BA-087-05-19 (# 6972)
A word on the EC50: it is the concentration needed to bring the measured effect to its halfway point. On to B1, for which the values for the EC50 in test [1], in test [2] and in [3] were 0.846 µg/mL, 0.00626 µg/mL and 0.022 µg/mL, respectively.

B2: BA-087-08-32 (antibody, V domains shown)
VH: EVQLVQSGAEVKKPGATVKISCKVSGFTFSHYTMHWIRQSPSRGLEWLGFISYDGNYKYYADSVKGRFTISRDNAKNSLYLQMNSLRAEDTAVYYCARTGWLGPFDYWGQGTLVTVSS
VL: EIVMTQSPATLSVSPGERATLSCRASQSVGSSYLAWYQQKPGKAPKLLIYGAFSRATGVPSRFSGSGSGTDFTLTISSLQPEDFATYYCQQDGSSPWTFGQGTKVEIK
notes: Detected with anti-human IgG and a molecular weight of 146 kDa was used in SPR, so it was tested as a whole IgG; also called BA-087-08-032; BA-087-08-32 (# 6978)
On to B2, for which the EC50 in test [4] came to 0.0337 µg/mL; in [5], 83.9 µg/mL; in [6], 0.0222 µg/mL; in [7], 0.868 µg/mL; in test [8] it was 1.19 µg/mL; in test [9] it was 1.54 µg/mL. Moreover, the results for the EC50 in test [10] and in test [11] were 1.14 µg/mL and around 0.15 µg/mL, respectively.
